Test: yeast display, Sf9 membrane polyspecificity reagent, FACS + sequencing; frameworks hold sequencing errors
Outline: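 Nanobodies came from a synthetic yeast display library in Saccharomyces cerevisiae BJ5465, induced with galactose for 36–48 hours and stained for 1 hour at 4 °C with 10% biotinylated, detergent-solubilized Sf9 membrane reagent. Cells were enriched on streptavidin microbeads and then FACS-sorted, with low and high (top ~1%) gates set on anti-HA fluorescence for expression and streptavidin fluorescence for reagent binding. Each polyreactivity label reflects the gate a clone came from. Genes were amplified by colony PCR, sequenced by MiSeq 2 × 250 and filtered by CDR length.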

Sequence | polyreactivity (PSR sort gate)
QVQLVESGGGIVQAGGRLRLSWAASGNTFDYYAMGWYRQAPWKERELVAAITRGGSTNYADSVKGRFTISRDNAKNTVYLQRNSRKPEDTAVYYCAAEQRAPRGADDDYCGQGTQVTVSS | low polyreactivity
QVQLVESGGGIVQAGGSIRLRCAASGIIFVVNDMGWYRQAPGKERELVADISDSGGSTNYADSVKGRFTISRDNAKNTVYLQMNRLKPEDTAVYYCAADSADPTEYDYWGQGSQVTVSS | low polyreactivity
QVQLVESGGGIVQAGGSLRISCAASGFIFSSYDMGWYRQAPGKERELVAAITWSGGSTYYADSVKARFTISRDNAKNTVYLHMNSLKPEDTAVYYCNAYPYYLVRNMDSWGQGTQVTVSS | high polyreactivity
QVQLVESGGGIVQAGGSLRISCAASGYTFKWYDMGWYRQAPGKEWELVASISWRGGSTYYADSVKGRYTISRDNAKNTVYFQMNSLKPEDTAVYYCAASLWPDYEYDYWGQGTQVTVSS | low polyreactivity
QVQLVESGGGIVQAGGSLRISFAASGFTFLGNAMGWYRQEPGKERELVARISTRGGTTYYADSVKGRFTISRDNAKYTVYFQMNRLKPEDTAVYYCAKKYYLYSPYRTGYDYWGQGTQVTVSS | high polyreactivity
QVQLVESGGGIVQAGGSLRLICAASGLILYGYTMGWYRQAPGKDRQLVAAISRGGGGTYYADSVKGRFTISRDNVKNTVYLQINSLKPEDTAVYYCAAYVYSLGGEYFYWGQGTLVTVSS | high polyreactivity
QVQLVESGGGIVQAGGSLRLRCAASGSIISVYAMGWYRQAPGKERELLDGITISGGRTYYADSVKGRFTISRDYAKNTVYLQMNSMKPEDTAVYYCAADWVYPPGLNDSVHFGEYDYWGQGSQVTVSS | low polyreactivity
QVQLVESGGGIVQAGGSLRLRCAASVRIFPCNTMGWYRQAPGKERELVAGINNGDRTYYADSVKGRFTISRDYAKNTVYLQMNILKPEDTAVYYCAADYVYFYFYGYDSWGQRTQVTVSS | low polyreactivity
QVQLVESGGGIVQAGGSLRLSCAASGFIFKKYVMGWYRQAPGKERELVAGISRSGGSTYYADSVKGRFTISRENAKITVYFQMNSLKPEDTAVYYGAAYIYQSPTRGGGYWGQGTQVTVSS | high polyreactivity
QVQLVESGGGIVQAGGSLRLSCAASGFIFSNYAMGWYRQAPGKERELVAAISSGGTITKYADSVKGRFTISRDNAKNTVYLQMNSLKTEDTAVYYCNAVVRVRFRKNDYWGQGTQVTVSS | high polyreactivity
QVQLVESGGGIVQAGGSLRLSCAASGFTFAVNAMGWYRQAPGKERELVAGISRRGGNTYYADSVKGRFTISRDNAKNTVYLQMNSLKPEDTAVYYCARYSYSYWGQGTQVTVSS | high polyreactivity
QVQLVESGGGIVQAGGSLRLSCAASGFTFDYNTMGWYRQAPGKERELVAAISWSGGSTYYADSVKGRFTISRDNAKNTVYLQMNSLKPEDTAVYYCAAAWSYRYELYYCGQGTQVTVSS | low polyreactivity
QVQLVESGGGIVQAGGSLRLSCAASGFTFTRYAMGSYRQAPGKERELVATITKRGGSTYYADSVKGRFTISRDNAKNTVYLKMNSLKPEDTAVYYCAADGASRALYDYWGQGTQVTVSS | high polyreactivity
QVQLVESGGGIVQAGGSLRLSCAASGFTFVNNAIGWYRQAPGKERELVASITRRGGRTYYADSVKGRFTISRDNAKNTVYLQMNSLKPEDTAVYYCAVQGYGWGPLGYAEYDYWGQGTQVTVSS | high polyreactivity
QVQLVESGGGIVQAGGSLRLSCAASGFTIPRYAMGWYRQAPGKERELVAAITVGGGRTYYADSVKGRFTISRDNAKNTVYLQMNSLKPEDTAVYYCAADSHASTYDYWGQGTQVTVSS | low polyreactivity
QVQLVESGGGIVQAGGSLRLSCAASGIIFKYYAMGWYRQAPGKERELVAAISRIGGSTHYADSVKGRFTISRDNAKYTVYLQMNSLKPEDTAVSYCAARVLGRPLYFIYDYWGQGTQVTVSS | high polyreactivity
QVQLVESGGGIVQAGGSLRLSCAASGIIFRYYAMGWYRQAPGNERELVAVITGRGGGTYYADSVKGRFTISRDNAKNTVYLQMNSLKPEDTAVYYCAKDFTGHYPKGFDYWGQGTQLTVSS | low polyreactivity

From the nanobody polyreactivity screen of Harvey et al. (2022)
